Data set [1] relates to HeLa Kyoto. Put plainly: solubility in G1/S (NP-40 vs SDS abundance) (log2 ratio); higher = more soluble. The conditions noted are these: cell cycle stage: G1/S.
Data set [2] deals with HeLa Kyoto. In words: melting temperature (median over replicates), in situ; higher = more thermally stable.
The test system of data set [3] is HeLa Kyoto. Put plainly: solubility change mitosis vs G1/S (difference of NP-40 vs SDS log2 ratios) (log2 ratio difference); higher = more soluble in mitosis.
The subject of data set [4] is HeLa Kyoto. Put plainly: thermal stability score vs G1/S (z-score of summed log2 fold changes over temperatures); higher = more thermally stable than in G1/S.
Where [5] appears, read: cell cycle stage: early G1 (4.5 h after nocodazole release).
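Throughout, for melting temperature (median over replicates), in situ: HeLa Kyoto cells synchronized by double thymidine or nocodazole block, proteins quantified by TMT10plex mass spectrometry, three independent biological replicates.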
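Throughout, for solubility change mitosis vs G1/S (difference of NP-40 vs SDS log2 ratios): synchronized HeLa Kyoto cells (double thymidine block for G1/S, nocodazole release for mitosis), protein amounts in NP-40 versus SDS lysates quantified by mass spectrometry, three biological replicates.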
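Throughout, for solubility in G1/S (NP-40 vs SDS abundance): HeLa Kyoto cells arrested at G1/S by double thymidine block, proteins quantified by TMT10plex mass spectrometry in mild NP-40 versus SDS extracts, three biological replicates.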
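Throughout, for thermal stability score vs G1/S (z-score of summed log2 fold changes over temperatures): synchronized HeLa Kyoto cells, proteins quantified by TMT10plex mass spectrometry, three biological replicates, mitosis taken 0.5 h after nocodazole release, G1/S directly after double thymidine block.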

As for “MEDVEARFAHLLQPIRDLTKNWEVDVAAQLGEYLEELDQICISFDEGKTTMNFIEAALLIQGSACVYSKKVEYLYSLVYQALDFISGKRRAKQLSSVQEDRANGVASSGVPQEAENEFLSLDDFPDSRTNVDLKNDQTPSEVLIIPLLPMALVAPDEMEKNNNPLYSRQGEVLASRKDFRMNTCVPHPRGAFMLEPEGMSPMEPAGVSPMPGTQKDTGRTEEQPMEVSVCRSPVPALGFSQEPGPSPEGPMPLGGGEDEDAEEAVELPEASAPKAALEPKESRSPQQSAALPRRYMLREREGAPEPASCVKETPDPWQSLDPFDSLESKPFKKGRPYSVPPCVEEALGQKRKRKGAAKLQDFHQWYLAAYADHADSRRLRRKGPSFADMEVLYWTHVKEQLETLRKLQRREVAEQWLRPAEEDHLEDSLEDLGAADDFLEPEEYMEPEGADPREAADLDAVPMSLSYEELVRRNVELFIATSQKFVQETELSQRIRDWEDTVQPLLQEQEQHVPFDIHTYGDQLVSRFPQLNEWCPFAELVAGQPAFEVCRSMLASLQLANDYTVEITQQPGLEMAVDTMSLRLLTHQRAHKRFQTYAAPSMAQP [NCAPH2]”, in the data set with HeLa Kyoto [1], the “solubility in G1/S (log2)” value is 0.197. The melting temperature with HeLa Kyoto [2] (cell cycle stage: G1/S) stood at 48.5 °C; in the data set with HeLa Kyoto [2] (cell cycle stage: mitosis), 48.6 °C. The “solubility change mitosis (log2)” value with HeLa Kyoto [3] was 0.0239. In addition, the thermal stability score was -0.208 with HeLa Kyoto [4] (setting [5]) and -0.203 in the data set on HeLa Kyoto [4] (cell cycle stage: mitosis).
Take “MEEDTDYRIRFSSLCFFNDHVGFHGTIKSSPSDFIVIEIDEQGQLVNKTIDEPIFKISEIQLEPNNFPKKPKLDLQNLSLEDGRNQEVHTLIKYTDGDQNHQSGSEKEDTIVDGTSKCEEKADVLSSFLDEKTHELLNNFACDVREKWLSKTELIGLPPEFSIGRILDKNQRASLHSAIRQKFPFLVTVGKNSEIVVKPNLEYKELCHLVSEEEAFDFFKYLDAKKENSKFTFKPDTNKDHRKAVHHFVNKKFGNLVETKSFSKMNCSAGNPNVVVTVRFREKAHKRGKRPLSECQEGKVIYTAFTLRKENLEMFEAIGFLAIKLGVIPSDFSYAGLKDKKAITYQAMVVRKVTPERLKNIEKEIEKKRMNVFNIRSVDDSLRLGQLKGNHFDIVIRNLKKQINDSANLRERIMEAIENVKKKGFVNYYGPQRFGKGRKVHTDQIGLALLKNEMMKAIKLFLTPEDLDDPVNRAKKYFLQTEDAKGTLSLMPEFKVRERALLEALHRFGMTEEGCIQAWFSLPHSMRIFYVHAYTSKIWNEAVSYRLETYGARVVQGDLVCLDEDIDDENFPNSKIHLVTEEEGSANMYAIHQVVLPVLGYNIQYPKNKVGQWYHDILSRDGLQTCRFKVPTLKLNIPGCYRQILKHPCNLSYQLMEDHDIDVKTKGSHIDETALSLLISFDLDASCYATVCLKEIMKHDV [PUS7L]”: the “solubility in G1/S (log2)” value with HeLa Kyoto [1] was -0.0836. The values for the melting temperature in the data set on HeLa Kyoto [2] (cell cycle stage: G1/S) and in the data set with HeLa Kyoto [2] (cell cycle stage: mitosis) were 51 °C and 51.9 °C, respectively. In the data set with HeLa Kyoto [3], the “solubility change mitosis (log2)” value was -0.137. For the same sequence, the values for the thermal stability score with HeLa Kyoto [4] (setting [5]) and in the data set on HeLa Kyoto [4] (cell cycle stage: mitosis) were 0.23 and 0.98, respectively.
Turning to “MEEGGNLGGLIKMVHLLVLSGAWGMQMWVTFVSGFLLFRSLPRHTFGLVQSKLFPFYFHISMGCAFINLCILASQHAWAQLTFWEASQLYLLFLSLTLATVNARWLEPRTTAAMWALQTVEKERGLGGEVPGSHQGPDPYRQLREKDPKYSALRQNFFRYHGLSSLCNLGCVLSNGLCLAGLALEIRSL [TMEM205]”, the “solubility in G1/S (log2)” value in the data set with HeLa Kyoto [1] was found to be 0.0662. Further, the melting temperature in the data set with HeLa Kyoto [2] (cell cycle stage: mitosis) was determined as 55.9 °C. In addition, the “solubility change mitosis (log2)” value in the data set with HeLa Kyoto [3] was -0.294. Further, the thermal stability score in the data set with HeLa Kyoto [4] (setting [5]) is -2.96; in the data set on HeLa Kyoto [4] (cell cycle stage: mitosis), -1.84.
In the case of “MEEGHGLDLTYITERIIAVSFPAGCSEESYLHNLQEVTRMLKSKHGDNYLVLNLSEKRYDLTKLNPKIMDVGWPELHAPPLDKMCTICKAQESWLNSNLQHVVVIHCRGGKGRIGVVISSYMHFTNVSASADQALDRFAMKKFYDDKVSALMQPSQKRYVQFLSGLLSGSVKMNASPLFLHFVILHGTPNFDTGGVCRPFLKLYQAMQPVYTSGIYNVGPENPSRICIVIEPAQLLKGDVMVKCYHKKYRSATRDVIFRLQFHTGAVQGYGLVFGKEDLDNASKDDRFPDYGKVELVFSATPEKIQGSEHLYNDHGVIVDYNTTDPLIRWDSYENLSADGEVLHTQGPVDGSLYAKVRKKSSSDPGIPGGPQAIPATNSPDHSDHTLSVSSDSGHSTASARTDKTEERLAPGTRRGLSAQEKAELDQLLSGFGLEDPGSSLKEMTDARSKYSGTRHVVPAQVHVNGDAALKDRETDILDDEMPHHDLHSVDSLGTLSSSEGPQSAHLGPFTCHKSSQNSLLSDGFGSNVGEDPQGTLVPDLGLGMDGPYERERTFGSREPKQPQPLLRKPSVSAQMQAYGQSSYSTQTWVRQQQMVVAHQYSFAPDGEARLVSRCPADNPGLVQAQPRVPLTPTRGTSSRVAVQRGVGSGPHPPDTQQPSPSKAFKPRFPGDQVVNGAGPELSTGPSPGSPTLDIDQSIEQLNRLILELDPTFEPIPTHMNALGSQANGSVSPDSVGGGLRASSRLPDTGEGPSRATGRQGSSAEQPLGGRLRKLSLGQYDNDAGGQLPFSKCAWGKAGVDYAPNLPPFPSPADVKETMTPGYPQDLDIIDGRILSSKESMCSTPAFPVSPETPYVKTALRHPPFSPPEPPLSSPASQHKGGREPRSCPETLTHAVGMSESPIGPKSTMLRADASSTPSFQQAFASSCTISSNGPGQRRESSSSAERQWVESSPKPMVSLLGSGRPTGSPLSAEFSGTRKDSPVLSCFPPSELQAPFHSHELSLAEPPDSLAPPSSQAFLGFGTAPVGSGLPPEEDLGALLANSHGASPTPSIPLTATGAADNGFLSHNFLTVAPGHSSHHSPGLQGQGVTLPGQPPLPEKKRASEGDRSLGSVSPSSSGFSSPHSGSTISIPFPNVLPDFSKASEAASPLPDSPGDKLVIVKFVQDTSKFWYKADISREQAIAMLKDKEPGSFIVRDSHSFRGAYGLAMKVATPPPSVLQLNKKAGDLANELVRHFLIECTPKGVRLKGCSNEPYFGSLTALVCQHSITPLALPCKLLIPERDPLEEIAESSPQTAANSAAELLKQGAACNVWYLNSVEMESLTGHQAIQKALSITLVQEPPPVSTVVHFKVSAQGITLTDNQRKLFFRRHYPVNSVIFCALDPQDRKWIKDGPSSKVFGFVARKQGSATDNVCHLFAEHDPEQPASAIVNFVSKVMIGSPKKV [TNS3]”, in the data set with HeLa Kyoto [1], the “solubility in G1/S (log2)” value is 0.127. The melting temperature amounted to 48 °C with HeLa Kyoto [2] (cell cycle stage: G1/S) and 49.8 °C in the data set on HeLa Kyoto [2] (cell cycle stage: mitosis). Moreover, the “solubility change mitosis (log2)” value in the data set on HeLa Kyoto [3] was -0.126. Moreover, the thermal stability score in the data set with HeLa Kyoto [4] (setting [5]) is 1.68; in the data set with HeLa Kyoto [4] (cell cycle stage: mitosis) it was 3.85.
In the case of “MEEKLKKTKIIFVVGGPGSGKGTQCEKIVQKYGYTHLSTGDLLRSEVSSGSARGKKLSEIMEKGQLVPLETVLDMLRDAMVAKVNTSKGFLIDGYPREVQQGEEFERRIGQPTLLLYVDAGPETMTQRLLKRGETSGRVDDNEETIKKRLETYYKATEPVIAFYEKRGIVRKVNAEGSVDSVFSQVCTHLDALK [AK1]”, the “solubility in G1/S (log2)” value in the data set on HeLa Kyoto [1] was 0.524. The melting temperature was determined as 50.4 °C in the data set with HeLa Kyoto [2] (cell cycle stage: G1/S) and 51 °C in the data set on HeLa Kyoto [2] (cell cycle stage: mitosis). Further, the “solubility change mitosis (log2)” value in the data set on HeLa Kyoto [3] was -0.0547. The thermal stability score with HeLa Kyoto [4] (setting [5]) worked out at 1.73; in the data set with HeLa Kyoto [4] (cell cycle stage: mitosis), 1.88.
On to “MEETMKLATMEDTVEYCLFLIPDESRDSDKHKEILQKYIERIITRFAPMLVPYIWQNQPFNLKYKPGKGGVPAHMFGVTKFGDNIEDEWFIVYVIKQITKEFPELVARIEDNDGEFLLIEAADFLPKWLDPENSTNRVFFCHGELCIIPAPRKSGAESWLPTTPPTIPQALNIITAHSEKILASESIRAAVNRRIRGYPEKIQASLHRAHCFLPAGIVAVLKQRPRLVAAAVQAFYLRDPIDLRACRVFKTFLPETRIMTSVTFTKCLYAQLVQQRFVPDRRSGYRLPPPSDPQYRAHELGMKLAHGFEILCSKCSPHFSDCKKSLVTASPLWASFLESLKKNDYFKGLIEGSAQYRERLEMAENYFQLSVDWPESSLAMSPGEEILTLLQTIPFDIEDLKKEAANLPPEDDDQWLDLSPDQLDQLLQEAVGKKESESVSKEEKEQNYDLTEVSESMKAFISKVSTHKGAELPREPSEAPITFDADSFLNYFDKILGPRPNESDSDDLDDEDFECLDSDDDLDFETHEPGEEASLKGTLDNLKSYMAQMDQELAHTCISKSFTTRNQVEPVSQTTDNNSDEEDSGTGESVMAPVDVDLNLVSNILESYSSQAGLAGPASNLLQSMGVQLPDNTDHRPTSKPTKN [ECD]”, for which, in the data set on HeLa Kyoto [1], the “solubility in G1/S (log2)” value is 0.116. Moreover, the melting temperature in the data set on HeLa Kyoto [2] (cell cycle stage: G1/S) turned out to be 50.8 °C; in the data set on HeLa Kyoto [2] (cell cycle stage: mitosis), 50 °C. Besides, the “solubility change mitosis (log2)” value in the data set on HeLa Kyoto [3] is -0.113. Also, the figures for the thermal stability score with HeLa Kyoto [4] (setting [5]) and in the data set with HeLa Kyoto [4] (cell cycle stage: mitosis) were 0.346 and 0.595, respectively.
As to “MEFPGGNDNYLTITGPSHPFLSGAETFHTPSLGDEEFEIPPISLDSDPSLAVSDVVGHFDDLADPSSSQDGSFSAQYGVQTLDMPVGMTHGLMEQGGGLLSGGLTMDLDHSIGTQYSANPPVTIDVPMTDMTSGLMGHSQLTTIDQSELSSQLGLSLGGGTILPPAQSPEDRLSTTPSPTSSLHEDGVEDFRRQLPSQKTVVVEAGKKQKAPKKRKKKDPNEPQKPVSAYALFFRDTQAAIKGQNPNATFGEVSKIVASMWDSLGEEQKQVYKRKTEAAKKEYLKALAAYKDNQECQATVETVELDPAPPSQTPSPPPMATVDPASPAPASIEPPALSPSIVVNSTLSSYVANQASSGAGGQPNITKLIITKQMLPSSITMSQGGMVTVIPATVVTSRGLQLGQTSTATIQPSQQAQIVTRSVLQAAAAAAAAASMQLPPPRLQPPPLQQMPQPPTQQQVTILQQPPPLQAMQQPPPQKVRINLQQQPPPLQIKSVPLPTLKMQTTLVPPTVESSPERPMNNSPEAHTVEAPSPETICEMITDVVPEVESPSQMDVELVSGSPVALSPQPRCVRSGCENPPIVSKDWDNEYCSNECVVKHCRDVFLAWVASRNSNTVVFVK [TOX4]”, the “solubility in G1/S (log2)” value with HeLa Kyoto [1] is -0.562. Further, the melting temperature in the data set on HeLa Kyoto [2] (cell cycle stage: G1/S) came to 50.6 °C; in the data set with HeLa Kyoto [2] (cell cycle stage: mitosis), 53 °C. Further, the “solubility change mitosis (log2)” value with HeLa Kyoto [3] was determined as 0.0879. The thermal stability score in the data set on HeLa Kyoto [4] (setting [5]) was 0.423; with HeLa Kyoto [4] (cell cycle stage: mitosis), 0.887.

Values taken from the supplement of paper PMC5998384.
